Assays:
[1] = test system: HEK293T landing pad cells; assay: Dual AAV delivery of serine integrase and template DNA, ddPCR integration assay; format: cell-based, human
Text: FIGS. 3A and 3B: Dual AAV delivery of serine integrase and template DNA to mammalian cells. (A) Schematic representation of experiment. BXB1 serine recombinase and template DNA are co-delivered as separate AAV viral vectors into BXB landing pad cell lines. (B) Droplet digital PCR (ddPCR) assay to assess integration (% CNV/landing pad) of BXB1 serine recombinase and transgene into attP-attP* landing pad cell line 3 days and 7 days post-transduction. Black dots (to the right of each pair of gray dots) indicate template only samples and fall at 0% on the y-axis. Gray dots (to the left of each pair of black dots) indicate template+BXB1 integrase and fall between 1-6% on the y-axis. […]
Two transgene configurations are assessed to determine the integration, stability, and expression using different AAV donor formats (FIG. 1B): 1) template comprising attP* or attB* that utilizes formation of double-stranded circularized DNA following AAV transduction in the cell nucleus; or 2) template comprising double attachment sites, attP-attP* or attB-attB*, that can integrate into the mammalian genome independent of double-stranded circularization of the DNA following AAV transduction in the cell nucleus. […]

[2] = test system: HEK293T landing pad cells; assay: mRNA delivery of integrase and AAV delivery of template DNA, ddPCR integration assay; format: cell-based, human
Text: FIGS. 4A and 4B: mRNA delivery of BXB1 integrase and AAV delivery of template DNA to mammalian cells. (A) Schematic representation of experiment. mRNA delivery of BXB1 serine recombinase and AAV delivery of template DNA into BXB1 landing pad cell lines. (B) Droplet digital PCR (ddPCR) assay to assess integration (% CNV/landing pad) of BXB1 serine recombinase and transgene into attP-attP* landing pad cell line 3 days post mRNA transfection/AAV transduction. Black dots (to the right of each pair of gray dots) indicate template only samples and fall at 0% on the y-axis. Gray dots (to the left of each pair of black dots) indicate template+BXB1 integrase and fall at greater than 0% on the y-axis.
More specifically, a recombinase, e.g., an integrase with an amino acid sequence from Table 3A, 3B, or 3C, e.g., the Bxb1 recombinase protein (Table 3A Line No. 204), and a template DNA comprising the associated attachment site, e.g., a sequence from a LeftRegion or RightRegion of Table 2A, 2B, or 2C, e.g., the LeftRegion from Table 2A Line No. 204, are introduced into a HEK293T landing pad cell line. In this example, the recombinase is delivered as mRNA encoding the recombinase, and the template DNA is delivered via AAV.
HEK293T landing pad cells containing either the attP-attP* or attB-attB* landing pad sites (see Example 14) were seeded in a 48-well plate format at 40,000 cells/well. […] The timing of delivery was also assessed by the following conditions: 1) mRNA delivery of BXB1 integrase and AAV delivery of template DNA on the same day, 2) mRNA delivery of BXB1 integrase 24 h prior to AAV delivery of template DNA, 3) AAV delivery of template DNA 24 h prior to mRNA delivery of BXB1 integrase. ddPCR was performed to assess the integration mediated through mRNA delivery of a serine integrase and AAV delivery of a template comprising its attachment, ddPCR was performed to assay for integration (% CNV/landing pad) on day 3 post-transfection of mRNA and post-transduction of AAV. ˜2-4% integration was detected using an attP* donor to attB-attB* landing pad 293T cell line (FIG. 4B). […]

B1: BXB1 integrase: Bxb1 recombinase protein (Table 3A Line No. 204), delivered as AAV vector or mRNA (protein, UniProt P25426 1-333, looked up)
Integrase: MDAEAWLASEKRLIDNEEWTPPAEREKKAAASAITVEEYTKKWIAERDLAGGTKDLYSTHARKRIYPVLGDTPVAEMTPALVRAWWAGMGKQYPTARRHAYNVLRAVMNTAVEDKLVSENPCRIEQKAPAERDVEALTPEELDVVAGEVFEHYRVAVYILAWTSLRFGELIEIRRKDIMDDGETMKLRVRRGPARVGEKIVVGNTKTVRSKRPVTVPPHVAAMIRAHMADRTKMNKGPEALLVTTTRGQRLSKSAFTRSLKKGYAKIGRPDLRIHDLRAVGATLAAQAGATTKELMVRLGHTTPRMAMKYQMASAARDEEIARRMSELAGITP
integration (% CNV/landing pad) by ddPCR ([1]; dual AAV2, attB* donor to attP-attP* landing pad cell line, day 3 and day 7 post-transduction, integrase MOI about 25,000, template MOI about 75,000): ~5% | integration (% CNV/landing pad) by ddPCR, FIG. 3B ([1]; dual AAV, template+BXB1 integrase, attP-attP* landing pad cell line, 3 days and 7 days post-transduction): 1-6% | highest % CNV/landing pad by ddPCR ([2]; AAV delivery of attachment site donor 24 h prior to mRNA delivery of BXB1 integrase, day 3): ~4% | integration (% CNV/landing pad) by ddPCR ([2]; integrase mRNA about 1 μg + AAV template MOI about 75,000, attP* donor to attB-attB* landing pad 293T cell line, day 3): 2-4% | integration (% CNV/landing pad) by ddPCR, FIG. 4B ([2]; template+BXB1 integrase, attP-attP* landing pad cell line, 3 days post mRNA transfection/AAV transduction): greater than 0%

Source: patent publication US20230131847A1, “RECOMBINASE COMPOSITIONS AND METHODS OF USE” (FLAGSHIP PIONEERING INNOVATIONS VI, LLC, priority 2019, published 2023)
